Experiments:
EPHB1 = EPHB1 (UniProt P54762); assay: phosphorylation enrichment, bacterial display (enrichment ratio); higher = better substrate or ligand; peptides without Tyr show the background
Fes = Fes (UniProt P07332); assay: as above
c-Src = assay: as above
FGFR3 = FGFR3 (UniProt P22607); assay: as above
Fer (mouse) = assay: as above
Jak2 = Jak2 (UniProt O60674); assay: as above
Fyn = Fyn (UniProt P06241); assay: as above
MERTK = MERTK (UniProt Q12866); assay: as above
FGFR1 = FGFR1 (UniProt P11362); assay: as above
Sequence of FGFR1 (P11362 whole entry, looked up): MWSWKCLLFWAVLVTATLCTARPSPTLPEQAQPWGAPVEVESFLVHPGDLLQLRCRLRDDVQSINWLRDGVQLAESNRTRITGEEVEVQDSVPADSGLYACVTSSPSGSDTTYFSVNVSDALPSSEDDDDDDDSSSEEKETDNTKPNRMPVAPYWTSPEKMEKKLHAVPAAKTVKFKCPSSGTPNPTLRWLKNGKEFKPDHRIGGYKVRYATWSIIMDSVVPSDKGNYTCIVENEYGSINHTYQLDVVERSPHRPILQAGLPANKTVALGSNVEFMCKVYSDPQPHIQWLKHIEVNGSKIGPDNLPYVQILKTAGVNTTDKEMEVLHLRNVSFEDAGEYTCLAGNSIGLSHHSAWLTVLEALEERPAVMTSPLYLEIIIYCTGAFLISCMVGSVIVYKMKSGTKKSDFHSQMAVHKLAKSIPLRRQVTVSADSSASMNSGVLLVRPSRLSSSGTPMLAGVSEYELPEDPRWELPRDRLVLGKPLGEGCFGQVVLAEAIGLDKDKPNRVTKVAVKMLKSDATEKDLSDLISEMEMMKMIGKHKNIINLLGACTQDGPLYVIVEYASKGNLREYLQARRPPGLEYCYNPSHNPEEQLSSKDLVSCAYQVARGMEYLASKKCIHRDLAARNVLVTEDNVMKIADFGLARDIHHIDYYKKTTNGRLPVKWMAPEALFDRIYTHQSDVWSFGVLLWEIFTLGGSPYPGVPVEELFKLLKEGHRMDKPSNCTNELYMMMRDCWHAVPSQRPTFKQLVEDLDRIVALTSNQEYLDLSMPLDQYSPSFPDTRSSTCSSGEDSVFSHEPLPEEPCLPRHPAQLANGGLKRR

c-Abl (mouse) = assay: as above
EPHB2 = EPHB2 (UniProt P29323); assay: as above
Sequence of EPHB2 (P29323 whole entry, looked up): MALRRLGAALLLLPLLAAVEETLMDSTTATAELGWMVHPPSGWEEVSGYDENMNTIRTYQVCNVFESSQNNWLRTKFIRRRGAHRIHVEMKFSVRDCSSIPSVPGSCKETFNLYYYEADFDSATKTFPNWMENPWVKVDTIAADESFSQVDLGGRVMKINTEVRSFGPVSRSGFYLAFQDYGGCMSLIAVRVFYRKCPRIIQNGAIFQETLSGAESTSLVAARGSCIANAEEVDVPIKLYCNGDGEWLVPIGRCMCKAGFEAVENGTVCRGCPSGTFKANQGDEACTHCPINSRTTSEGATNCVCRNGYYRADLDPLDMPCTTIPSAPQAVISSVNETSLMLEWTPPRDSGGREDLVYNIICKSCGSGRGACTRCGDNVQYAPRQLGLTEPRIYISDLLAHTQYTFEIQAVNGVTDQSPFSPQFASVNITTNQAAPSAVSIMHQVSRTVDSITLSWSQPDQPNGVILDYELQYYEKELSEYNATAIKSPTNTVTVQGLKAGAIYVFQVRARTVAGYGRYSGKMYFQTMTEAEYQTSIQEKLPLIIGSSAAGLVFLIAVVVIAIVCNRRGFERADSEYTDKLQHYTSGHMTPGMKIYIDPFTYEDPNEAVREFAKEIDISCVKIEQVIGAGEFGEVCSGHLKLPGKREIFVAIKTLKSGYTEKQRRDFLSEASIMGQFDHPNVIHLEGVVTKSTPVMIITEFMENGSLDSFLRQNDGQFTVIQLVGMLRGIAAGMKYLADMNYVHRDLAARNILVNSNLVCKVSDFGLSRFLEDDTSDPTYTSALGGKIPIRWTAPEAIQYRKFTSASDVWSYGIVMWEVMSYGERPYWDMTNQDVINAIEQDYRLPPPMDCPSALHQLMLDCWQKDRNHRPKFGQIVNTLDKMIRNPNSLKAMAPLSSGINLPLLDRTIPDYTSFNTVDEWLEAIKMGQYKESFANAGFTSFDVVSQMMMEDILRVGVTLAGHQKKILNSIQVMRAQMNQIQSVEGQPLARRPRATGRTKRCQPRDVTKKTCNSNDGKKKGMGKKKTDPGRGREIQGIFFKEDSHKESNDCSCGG

AncSZ = assay: as above
Hck = Hck (UniProt P08631); assay: as above
Sequence of Hck (P08631 whole entry, looked up): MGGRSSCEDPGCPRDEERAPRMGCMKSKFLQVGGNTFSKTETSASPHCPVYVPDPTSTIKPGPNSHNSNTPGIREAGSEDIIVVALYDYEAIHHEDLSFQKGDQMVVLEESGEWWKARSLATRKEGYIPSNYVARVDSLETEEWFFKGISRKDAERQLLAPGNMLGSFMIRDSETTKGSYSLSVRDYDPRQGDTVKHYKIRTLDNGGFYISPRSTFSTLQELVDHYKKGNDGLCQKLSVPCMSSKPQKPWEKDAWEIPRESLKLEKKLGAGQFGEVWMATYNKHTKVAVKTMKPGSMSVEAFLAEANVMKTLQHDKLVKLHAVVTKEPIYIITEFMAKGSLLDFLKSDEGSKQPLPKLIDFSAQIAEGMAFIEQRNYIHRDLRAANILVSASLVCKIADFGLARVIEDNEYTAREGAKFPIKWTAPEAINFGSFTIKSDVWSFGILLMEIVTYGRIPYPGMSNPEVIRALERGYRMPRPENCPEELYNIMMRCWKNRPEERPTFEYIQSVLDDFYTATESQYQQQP

Grb2 SH2 = Grb2 SH2 (UniProt P62993); assay: SH2 binding enrichment of the phosphorylated peptide, bacterial display (enrichment ratio); higher = better substrate or ligand; peptides without Tyr show the background
c-Src SH2 = assay: as above
SHP2-C SH2 = assay: as above
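Throughout, for SH2 binding enrichment of the phosphorylated peptide, bacterial display: peptide library displayed on the E. coli surface as eCPX fusions, selected cells deep-sequenced, score is each peptide's frequency after selection divided by its frequency in the input.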
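Throughout, for phosphorylation enrichment, bacterial display: 11-residue human phosphosite peptides and single-mutation variants displayed on the E. coli surface, counted by deep sequencing, each peptide's frequency after selection divided by its frequency in the unselected input library; frequency after pTyr selection over input frequency; kinase dosed for 20-30% of maximal phosphorylation in three min.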

Sequence of Fyn (P06241 whole entry, looked up): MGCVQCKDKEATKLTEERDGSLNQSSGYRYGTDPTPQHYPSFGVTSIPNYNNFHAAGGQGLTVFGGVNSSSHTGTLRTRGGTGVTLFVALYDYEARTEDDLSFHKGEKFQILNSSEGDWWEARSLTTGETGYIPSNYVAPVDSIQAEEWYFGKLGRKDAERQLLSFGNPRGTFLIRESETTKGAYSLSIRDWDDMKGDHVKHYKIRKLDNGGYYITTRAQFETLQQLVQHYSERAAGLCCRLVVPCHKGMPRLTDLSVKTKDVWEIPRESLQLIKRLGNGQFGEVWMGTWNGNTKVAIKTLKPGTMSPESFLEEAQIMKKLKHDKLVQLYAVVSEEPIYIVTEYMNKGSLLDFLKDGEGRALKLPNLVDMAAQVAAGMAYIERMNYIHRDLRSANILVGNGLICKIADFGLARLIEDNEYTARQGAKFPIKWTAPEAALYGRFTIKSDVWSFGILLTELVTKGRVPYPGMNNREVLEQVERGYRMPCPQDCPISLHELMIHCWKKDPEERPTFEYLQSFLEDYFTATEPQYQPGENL
Sequence of Jak2 (O60674 whole entry, looked up): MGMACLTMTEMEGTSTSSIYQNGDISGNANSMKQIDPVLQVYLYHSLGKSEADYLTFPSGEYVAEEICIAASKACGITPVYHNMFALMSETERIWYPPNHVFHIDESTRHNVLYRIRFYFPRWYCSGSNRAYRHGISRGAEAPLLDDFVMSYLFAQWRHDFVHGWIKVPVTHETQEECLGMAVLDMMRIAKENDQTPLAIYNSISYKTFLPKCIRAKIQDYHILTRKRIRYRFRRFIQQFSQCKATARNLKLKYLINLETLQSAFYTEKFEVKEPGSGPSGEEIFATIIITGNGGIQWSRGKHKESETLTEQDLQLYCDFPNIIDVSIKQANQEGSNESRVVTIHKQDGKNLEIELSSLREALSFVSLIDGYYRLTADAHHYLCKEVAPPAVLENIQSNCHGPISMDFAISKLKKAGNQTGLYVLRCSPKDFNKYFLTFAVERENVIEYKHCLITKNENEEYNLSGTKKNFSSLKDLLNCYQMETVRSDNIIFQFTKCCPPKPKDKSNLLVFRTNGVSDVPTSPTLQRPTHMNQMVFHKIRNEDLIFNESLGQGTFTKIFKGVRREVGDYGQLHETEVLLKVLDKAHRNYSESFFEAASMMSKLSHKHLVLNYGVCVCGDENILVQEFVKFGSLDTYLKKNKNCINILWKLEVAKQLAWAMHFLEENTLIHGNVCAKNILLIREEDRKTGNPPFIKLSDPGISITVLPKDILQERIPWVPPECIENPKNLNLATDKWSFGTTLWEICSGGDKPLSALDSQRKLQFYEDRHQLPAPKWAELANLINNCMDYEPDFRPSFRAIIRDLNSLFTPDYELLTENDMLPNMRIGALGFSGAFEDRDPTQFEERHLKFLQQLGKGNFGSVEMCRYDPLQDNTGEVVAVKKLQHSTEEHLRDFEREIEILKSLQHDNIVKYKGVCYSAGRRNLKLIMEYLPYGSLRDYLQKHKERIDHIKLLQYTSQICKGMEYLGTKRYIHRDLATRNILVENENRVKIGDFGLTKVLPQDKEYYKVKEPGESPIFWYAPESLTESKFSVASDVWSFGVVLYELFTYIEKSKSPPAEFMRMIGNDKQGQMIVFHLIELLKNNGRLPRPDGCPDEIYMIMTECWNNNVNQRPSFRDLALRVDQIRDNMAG
Sequence of FGFR3 (P22607 whole entry, looked up): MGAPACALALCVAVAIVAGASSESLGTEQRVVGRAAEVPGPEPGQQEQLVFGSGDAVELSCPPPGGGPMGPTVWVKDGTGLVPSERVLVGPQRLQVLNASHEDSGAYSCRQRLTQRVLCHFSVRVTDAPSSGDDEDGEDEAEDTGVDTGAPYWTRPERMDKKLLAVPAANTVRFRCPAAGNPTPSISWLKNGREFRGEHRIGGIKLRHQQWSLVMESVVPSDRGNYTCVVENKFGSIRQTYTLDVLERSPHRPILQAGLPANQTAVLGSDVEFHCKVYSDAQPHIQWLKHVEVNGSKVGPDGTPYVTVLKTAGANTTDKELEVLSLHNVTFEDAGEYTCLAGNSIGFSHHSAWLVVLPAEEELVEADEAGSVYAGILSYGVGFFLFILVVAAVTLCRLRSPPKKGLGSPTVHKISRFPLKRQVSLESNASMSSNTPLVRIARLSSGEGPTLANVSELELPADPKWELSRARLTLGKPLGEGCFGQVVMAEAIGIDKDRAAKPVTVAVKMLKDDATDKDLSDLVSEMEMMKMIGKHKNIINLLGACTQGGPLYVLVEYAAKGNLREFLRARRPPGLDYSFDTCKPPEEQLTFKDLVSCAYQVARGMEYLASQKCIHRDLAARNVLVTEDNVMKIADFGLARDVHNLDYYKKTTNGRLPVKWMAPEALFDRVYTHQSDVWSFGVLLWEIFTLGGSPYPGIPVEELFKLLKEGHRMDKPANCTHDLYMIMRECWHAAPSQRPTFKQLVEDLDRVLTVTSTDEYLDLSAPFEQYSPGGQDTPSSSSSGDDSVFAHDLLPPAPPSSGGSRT

Sequence	SH2 binding enrichment (Grb2 SH2)	SH2 binding enrichment (c-Src SH2)	SH2 binding enrichment (SHP2-C SH2)	phosphorylation enrichment (EPHB1)	phosphorylation enrichment (Fes)	phosphorylation enrichment (c-Src)	phosphorylation enrichment (FGFR3)	phosphorylation enrichment (Fer (mouse))	phosphorylation enrichment (Jak2)	phosphorylation enrichment (Fyn)	phosphorylation enrichment (MERTK)	phosphorylation enrichment (FGFR1)	phosphorylation enrichment (c-Abl (mouse))	phosphorylation enrichment (EPHB2)	phosphorylation enrichment (AncSZ)	phosphorylation enrichment (Hck)
ANLAKYGNPNE [BCHE_Y505_F502L]	0.645	0.425	0.639	0.492	0.779	0.306	0.65	0.391	0.622	0.385	0.379	0.392	0.565	0.455	0.778	0.403
APNEFYDGDHD [HDAC3_Y414]	0.727	0.57	0.632	0.613	1.29	0.574	1.18	0.59	1.32	0.535	0.602	0.624	1.04	0.605	1.3	0.769
ASPALYRLDLD [TRIL_Y352]	0.753	0.457	0.557	0.818	1.16	1.84	0.688	0.484	0.873	0.922	0.484	0.552	0.763	0.596	0.798	0.617
ATARPYSPFII [LRP5_Y1528_R1529S_YF]	1.04	0.715	0.75	0.403	0.735	0.633	0.618	9.77	0.508	0.504	0.552	0.409	0.467	0.474	0.627	0.594
ATDLAYYLVRK [ASL_Y375]	1.25	0.798	0.988	0.602	1.41	1.27	4.21	0.786	3.03	0.85	1.19	4.91	1.04	0.543	1.63	0.885
ATPKGYETDAS [OTC_Y223_P225T]	0.866	0.56	0.596	0.502	0.743	0.524	0.616	0.416	0.667	0.44	0.421	0.54	0.622	0.543	0.735	0.438
AVISVYDLVAV [PSEN1_Y256]	1.03	1.39	1.03	6.18	1.2	4.51	0.577	13	0.82	6.35	6.38	0.429	0.753	4.92	1.24	6.2
CEHRGYLYLAI [TEK_Y897]	1.21	0.741	0.761	0.664	1.51	0.527	0.72	0.551	0.973	0.494	0.708	0.726	0.84	0.53	1.04	0.614
CERFSYFGMKA [SLC15A2_Y60_YF]	1.02	0.704	0.577	0.571	1.26	0.575	0.938	0.467	2.66	0.529	0.544	1.24	0.94	0.745	1.13	0.557
CGTPDYIAPEI [PRKCG_Y521]	0.853	0.589	0.699	0.715	1.14	0.433	1.26	0.484	0.882	0.53	0.444	1.23	0.632	0.755	1.99	0.568
CKPGFYNLKEK [LAMA1_Y490]	1.06	0.611	0.769	0.543	0.793	0.34	0.507	0.43	0.602	0.359	0.378	0.472	0.568	0.469	0.693	0.357
CPPKVYELMRA [ABL2_Y515]	0.944	1.53	0.693	8.38	1.04	1.33	0.679	6.41	0.53	1.13	3.81	0.73	0.585	2.41	0.662	1.81
CQAHGYSCQLI [STK11_Y156_F157S]	0.854	0.768	0.847	0.568	0.925	0.435	0.531	0.506	0.556	0.648	0.47	0.529	0.492	0.508	0.77	0.5
CTLLPYFSAPV [DGKE_Y269_R273P_YF]	0.71	0.462	0.622	0.66	1.34	0.569	0.826	0.493	1.19	0.518	0.453	0.615	0.896	0.677	1.24	0.557
CTTFHYNYMCN [TP53_Y234_I232F]	1.17	4.4	1.82	0.809	1.05	0.507	0.713	0.659	0.842	0.547	0.475	0.696	0.955	0.629	1.03	0.514
CTTIHYIYMCN [TP53_Y234_N235I]	0.894	0.716	1.35	0.459	0.989	0.263	0.548	0.478	0.907	0.254	0.281	0.404	0.742	0.461	0.728	0.322
CTTIHYMYMCN [TP53_Y234_N235M]	0.998	1.06	2.59	0.62	1.14	0.332	0.772	0.556	0.973	0.362	0.34	0.485	0.681	0.517	1.06	0.45
CTTIHYSYMCN [TP53_Y234_N235S]	1.58	5.17	6.33	0.524	0.916	0.526	0.724	1.01	0.663	0.465	0.874	0.667	0.627	0.628	0.897	0.53
CTTSHYNYMCN [TP53_Y234_I232S]	1.01	11	2.04	0.741	0.755	0.441	0.649	0.55	0.537	0.49	0.549	0.569	0.515	0.534	0.896	0.563
DAPVVYLGSFG [PRAG1_Y132_R137G]	0.646	0.479	6.03	0.389	0.851	0.507	0.623	0.475	0.776	0.514	0.437	0.491	0.671	0.579	0.863	0.631
DASAVYLHDFQ [PLCG2_Y242]	0.933	0.542	0.634	0.528	1.31	0.447	0.543	0.474	0.792	0.533	0.477	0.477	0.573	0.561	0.746	0.622

Second part, led by results:

SH2 binding enrichment (Grb2 SH2)	SH2 binding enrichment (c-Src SH2)	SH2 binding enrichment (SHP2-C SH2)	Sequence	phosphorylation enrichment (EPHB1)	phosphorylation enrichment (Fes)	phosphorylation enrichment (c-Src)	phosphorylation enrichment (FGFR3)	phosphorylation enrichment (Fer (mouse))	phosphorylation enrichment (Jak2)	phosphorylation enrichment (Fyn)	phosphorylation enrichment (MERTK)	phosphorylation enrichment (FGFR1)	phosphorylation enrichment (c-Abl (mouse))	phosphorylation enrichment (EPHB2)	phosphorylation enrichment (AncSZ)	phosphorylation enrichment (Hck)
0.821	0.46	0.617	ANQDDYISFRH [IMP4_Y226]	0.507	0.841	1.11	0.967	0.357	0.901	0.899	0.482	1.07	0.557	0.469	1.17	1.19
0.741	0.524	0.603	ARGMEYLAEQK [MST1R_Y1198_G1195S]	0.488	0.914	0.381	0.826	0.384	0.77	0.491	0.435	0.39	0.599	0.47	0.807	0.46
0.706	0.466	0.523	AVHPGYGFLSE [PCCA_Y143]	0.46	0.99	0.47	1.12	0.545	0.82	0.487	0.527	0.662	0.692	0.672	0.663	0.666
0.75	0.443	0.548	CDDGKYVYVVT [RPS6KA3_Y488_Y483C]	0.896	1.6	0.863	1.15	0.798	1.42	0.84	0.525	0.834	1.05	0.777	1.48	0.75
1.13	0.912	1.29	CENCHYPILPL [LCK_Y25_V28L]	0.43	0.903	0.436	0.632	0.423	0.718	0.391	0.357	0.541	0.607	0.422	0.678	0.746
0.814	0.461	0.52	CGTPDYIDPEI [PRKCG_Y521_A523D]	1.1	1.41	0.481	1.85	0.531	1.31	0.581	0.454	2.28	0.813	0.725	1.58	0.7
0.906	0.752	0.547	CLEKEYFDQHF [NPC1_Y394_R389C]	0.581	1.32	0.585	1.13	0.593	1.04	0.514	0.406	0.949	0.902	0.572	1.53	0.508
0.633	0.427	0.502	CTNELYMMMRD [FGFR1_Y730]	1.86	1.38	1.15	1.28	0.693	1.35	0.705	2	0.935	0.898	1.09	1.34	1.47
1.1	0.653	0.795	CTTIHKNFMCN [TP53_Y234_Y234K_YF]	0.394	0.699	0.448	0.585	0.453	0.553	0.409	0.42	0.486	0.49	0.53	0.831	0.405
1.83	1.85	3.21	CTTIHYTFMCN [TP53_Y234_N235T_YF]	0.562	1.14	0.653	0.754	0.575	0.976	0.535	0.536	0.718	0.819	0.553	0.939	0.576
1.6	2.94	1.96	CTTIHYYYMCN [TP53_Y234_N235Y]	0.585	1.08	1.05	2.11	0.574	1.27	1.41	0.767	2.74	0.644	0.773	0.991	0.804
1.87	1.65	1.82	CTTIRYNFMCN [TP53_Y234_H233R_YF]	0.552	0.983	0.372	0.684	0.501	0.833	0.521	0.407	0.434	0.618	0.613	0.948	0.435
